Laboratory results as given in the supplement of paper PMC7877785.
± gives the uncertainty stated by the source.

Experiment: self-splicing fitness, log relative to wild type (ln ratio); higher = more splicing; Tetrahymena group I intron in knt gene, E. coli kanamycin selection, DiMSum; sequences stand for … in CUCUCU…GGAGGGAAAAGUUAUCAGGCAUGCACCUGGUAGCUAGUCUUUAAACCAAUAGAUUGCAUCGGUUUAAAAGGCAAGACCGUCAAAUUGCGGGAAAGGGGUCAACAGCCGUUCAGUACCAAGUCUCAGGGGAAACUUUGAGAUGGCCUUGCAAAGGGUAUGGUAAUAAGCUGACGGACAUGGUCCUAACCACGCAGCCAAGUCCUAAGUCAACAGAUCUUCUGUUGAUAUGGAUGCAGUUCACAGACUAAAUGUCGGUCGGGGAAGAUGUAUUCUUCUCAUAAGAUAUAGUCGGACCUCUCCUUAAUGGGAGCUAGCGGAUGAAGUGAUGCAACACUGGAGCCGCUGGGAACUAAUUUGUAUGCGAAAGUAUAUUGAUUAGUUUUGGAGUACUCGUGGUCG
Outline: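 Pooled colonies went to amplicon sequencing on an Illumina HiSeq 2500 after six replicate transformations. The plates were LB agar with 100 μg/mL carbenicillin, 50 μM IPTG and 0.2% rhamnose, with or without 25 μg/mL kanamycin, incubated overnight at 37°C or 30°C. The E. coli BL21(DE3) library had all eight P1ex-region intron nucleotides randomised, the intron placed in the knt kanamycin-resistance gene on pET-22b(+). DiMSum fitness is the error-weighted combination of replicate fold changes, kanamycin against none, normalised to wild type.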

| Sequence | self-splicing fitness (ln) (30 °C) | self-splicing fitness (ln) (37 °C) |
| --- | --- | --- |
| AAGCAGCAAUAUUACGAUAG | -3.63 ± 0.2 | -1.45 ± 0.15 |
| GAGCAGCAAUAUUACGGGGC | -3.57 ± 0.21 | -2.52 ± 0.25 |
| UUAUAGCAAUAUUACGCUCA | -0.877 ± 0.38 | -1.09 ± 0.42 |
| CCGUAGCAAUAUUACGAGCA |  | -1.37 ± 0.33 |
| AAAAAGCAAUAUUACGUGCA | -0.742 ± 0.056 | -0.201 ± 0.072 |
| AAAUAGCAAUAUUACGGCUU | 0.203 ± 0.1 | 0.139 ± 0.13 |
| ACUGAGCAAUAUUACGGGUC | -4.21 ± 0.27 | -3.02 ± 0.33 |
| GUCGAGCAAUAUUACGUUUC | -2.08 ± 0.21 | -1.88 ± 0.2 |
| CACAAGCAAUAUUACGCCGA | -3.39 ± 0.26 | -0.917 ± 0.15 |
| CGCCAGCAAUAUUACGCUAC | -3.74 ± 0.36 | -2.58 ± 0.28 |
| CCUCAGCAAUAUUACGGCUA | -3.62 ± 0.4 | -1.72 ± 0.25 |
| ACAAAGCAAUAUUACGGUCC | -1.7 ± 0.11 | -0.977 ± 0.16 |
| GUAGAGCAAUAUUACGGUGA | -2.14 ± 0.13 | -1.09 ± 0.2 |
| CCGCAGCAAUAUUACGGGGU | -3.54 ± 0.14 | -2.21 ± 0.13 |
| GCGUAGCAAUAUUACGACGU | -3.1 ± 0.16 | -1.45 ± 0.28 |
| CGAGAGCAAUAUUACGGCAU | -3.2 ± 0.42 | -2.15 ± 0.46 |
| AUCGAGCAAUAUUACGAGGG | -1.4 ± 0.17 | -2.1 ± 0.46 |
| CAUGAGCAAUAUUACGCGUA | -2.65 ± 0.24 | -2.45 ± 0.25 |
| UCCAAGCAAUAUUACGCCAU | -4.34 ± 0.28 | -3.21 ± 0.27 |
| GAUCAGCAAUAUUACGAGGA | -1.43 ± 0.13 | -1.85 ± 0.13 |
| GCCUAGCAAUAUUACGGUCG | -3.36 ± 0.2 | -2.5 ± 0.25 |
| UUCUAGCAAUAUUACGUGAG | -0.386 ± 0.06 | -0.345 ± 0.11 |
| CUGUAGCAAUAUUACGUGUC | -2.97 ± 0.27 | -1.29 ± 0.17 |
| CUUUAGCAAUAUUACGAACG | 0.602 ± 0.16 | 0.157 ± 0.19 |
| AGUAAGCAAUAUUACGGCAG | -2.1 ± 0.16 | -1.53 ± 0.2 |
| CAUAAGCAAUAUUACGAGUC | -3.2 ± 0.43 | -2.68 ± 0.38 |
| ACGUAGCAAUAUUACGCGCU | -1.89 ± 0.11 | -0.586 ± 0.16 |

| Sequence | self-splicing fitness (ln) (30 °C) | self-splicing fitness (ln) (37 °C) |
| --- | --- | --- |
| ACGGAGCAAUAUUACGGGGC | -3.39 ± 0.35 | -3.86 ± 0.46 |
| AAGAAGCAAUAUUACGACCC | -1.01 ± 0.16 | -0.395 ± 0.17 |
| UGCUAGCAAUAUUACGCUGU | -3.58 ± 0.22 | -2.38 ± 0.27 |
| GAUAAGCAAUAUUACGGUUG | -2.65 ± 0.12 | -1.26 ± 0.11 |
| CCAUAGCAAUAUUACGGCGC | -1.25 ± 0.19 | -2.07 ± 0.3 |
| CGGGAGCAAUAUUACGGGUC |  | -2.97 ± 0.48 |
| GACGAGCAAUAUUACGCGUC | -2.57 ± 0.5 |  |
| ACCCAGCAAUAUUACGGCCA | -1.17 ± 0.075 | -0.171 ± 0.09 |
| CUAUAGCAAUAUUACGUAUU | -3.8 ± 0.32 |  |
| CUUCAGCAAUAUUACGUUUG | -1.87 ± 0.082 | -1.24 ± 0.091 |
| GCCAAGCAAUAUUACGUGGU | -3.65 ± 0.13 | -3.27 ± 0.17 |
| ACUAAGCAAUAUUACGUACG | -1.76 ± 0.12 | -0.814 ± 0.16 |
| GCCUAGCAAUAUUACGCUCG | -2.7 ± 0.2 | -2.06 ± 0.3 |
| GGACAGCAAUAUUACGGCGU | -0.74 ± 0.097 | -0.627 ± 0.11 |
| CGAGAGCAAUAUUACGAUCU | -2.45 ± 0.42 |  |
| CCGUAGCAAUAUUACGAUAG | -1.22 ± 0.29 | -0.918 ± 0.18 |
| GUUAAGCAAUAUUACGGUGU | -1.58 ± 0.11 | -0.8 ± 0.12 |
| AUGGAGCAAUAUUACGAGUC | -2.08 ± 0.41 |  |
| AACCAGCAAUAUUACGGAGG | -1.36 ± 0.076 | -0.444 ± 0.12 |
| CGCCAGCAAUAUUACGCACC | -2.37 ± 0.17 | -2.33 ± 0.35 |
| UUCAAGCAAUAUUACGCCGU | -2.25 ± 0.2 | -1.46 ± 0.19 |
| ACAUAGCAAUAUUACGAUAU | -2.69 ± 0.15 | -1.97 ± 0.14 |
| ACAUAGCAAUAUUACGACCU | -0.446 ± 0.1 | 0.527 ± 0.13 |
| CCGGAGCAAUAUUACGCGUU | -2.5 ± 0.28 | -2.28 ± 0.24 |
| AUGUAGCAAUAUUACGUUAC | -4.22 ± 0.39 | -0.607 ± 0.2 |
| UGGUAGCAAUAUUACGUAGU | -3.23 ± 0.22 | -1.04 ± 0.18 |
| GUGAAGCAAUAUUACGACUA | -0.0623 ± 0.096 | 0.462 ± 0.14 |

| Sequence | self-splicing fitness (ln) (30 °C) | self-splicing fitness (ln) (37 °C) |
| --- | --- | --- |
| UUGUAGCAAUAUUACGCCCG | -0.143 ± 0.22 | -0.0661 ± 0.23 |
| GAGGAGCAAUAUUACGCCGA | -1.95 ± 0.33 | -1.77 ± 0.28 |
| UGCAAGCAAUAUUACGGUCA | 0.0812 ± 0.064 | -0.169 ± 0.065 |
| AGGGAGCAAUAUUACGGUGA | -1.8 ± 0.24 | -1.66 ± 0.26 |
| GACGAGCAAUAUUACGUGGC | -0.192 ± 0.41 | -1.57 ± 0.22 |
| UUUAAGCAAUAUUACGGUCC | -2.33 ± 0.3 | -1.25 ± 0.25 |
| UGUUAGCAAUAUUACGGCUU | -0.797 ± 0.16 | -0.574 ± 0.19 |
| AUAUAGCAAUAUUACGUAGU | -2.39 ± 0.14 | -0.774 ± 0.14 |
| UACAAGCAAUAUUACGGACU | -1.22 ± 0.079 | -0.00357 ± 0.085 |
| GCACAGCAAUAUUACGUGCC | -5.1 ± 0.29 |  |
| AUUUAGCAAUAUUACGAUGC | -1.98 ± 0.23 | -0.497 ± 0.21 |
| ACUCAGCAAUAUUACGUCGC | -2.57 ± 0.24 | -0.332 ± 0.17 |
| UCCAAGCAAUAUUACGAGGU | -3.4 ± 0.14 | -1.8 ± 0.11 |
| AAGCAGCAAUAUUACGGCAG | -1.31 ± 0.065 | -0.525 ± 0.087 |
| UAAUAGCAAUAUUACGGGAG | -2.84 ± 0.17 | -3.3 ± 0.22 |
| UUUCAGCAAUAUUACGGACC | -1.2 ± 0.4 |  |
| GUCGAGCAAUAUUACGGCAG |  | -2.81 ± 0.44 |
| GCAUAGCAAUAUUACGCUCU | -1.81 ± 0.12 | -0.894 ± 0.12 |
| CGAAAGCAAUAUUACGUCUU | -2.8 ± 0.13 | -1.87 ± 0.16 |
| CACUAGCAAUAUUACGUGGC | -3.89 ± 0.23 | -3.28 ± 0.2 |
| GUAAAGCAAUAUUACGCGCC | -2.22 ± 0.2 | -1.03 ± 0.23 |
| GUUUAGCAAUAUUACGGCUC | 0.0411 ± 0.094 | 0.193 ± 0.12 |
| CAUUAGCAAUAUUACGUUAU |  | -1.91 ± 0.22 |
| CGUUAGCAAUAUUACGCGCU | -1.9 ± 0.2 | -1.73 ± 0.17 |
| AUCGAGCAAUAUUACGCUAA | -3.48 ± 0.21 | -2.88 ± 0.18 |
